The target in this assay is biotin-labeled Aβ40 (UniProt P05067 672-711, biotin (position not given)). In words: pull-down.

B1: MDK protein (Midkine), human recombinant (natural protein, UniProt P21741 21-143, looked up)
chain: VAKKKDKVKKGGPGSECAEWAWGPCTPSSKDCGVGFREGTCGAQTQRIRCRVPCNWKKEFGADCKYKFENWGACDGGTGTKVRQGTLKKARYNAQCQETIRVTKPCTPKTKAKAKAKKGKGKD
Consider B1, for which the binding result is listed as “binds”.

Values taken from paper PMC7318843 (Neuron, 2020).
